Data reported in US20090196877A1.

Target: SIINFEKL/H-2 Kb (mouse) (UniProt P01901)

expression of the cell surface markers CD44, CD69 and CD25 on OT-1 cells after stimulation with irradiated CD80/EG7: 100%
Substance: OT-1 T cell Receptor (TCR) of OT-1 TCR transgenic T cells
